Measurements reported in patent publication US20230272024A1, “FIBROBLAST GROWTH FACTOR 7 PEPTIDE” (University of Florida Research Foundation, Incorporated, priority 2020, published 2023).
“Also recorded” adds a separate entry of the source.

Assays:
Assay type in all cases: in vivo, mice
pAKT = pAKT immunostaining of urothelium after cyclophosphamide; conditions: two SC doses of 20 mg/kg at 72 and 48 hours prior to cyclophosphamide, 24 hours after cyclophosphamide
FGFR2IIIb [1] = target: T1, FGFR2IIIb (Mus musculus, UniProt P21803); test: pFRS2α immunostaining of bladder urothelium after subcutaneous ligand; conditions: for onset of pFRS2α staining (initial staining observed) after administration: mouse, in vivo
T1 construct: from tissue; host or cells: bladder urothelium of FVB/N mice (in vivo)
Method: (§1) Uninjured mice were treated with 0.2 mL of 10% DMSO, 40 mg/kg FGF7-p, or […] full length FGF7 (n=2 mice per group, mice were about 25 g in weight) administered by subcutaneous injection. At the indicated times (Tables 1 and 2, FIGS. 1 and 2) bladders were harvested and immunostained for pFRS2α and pAKT, markers of urothelial protection. Immunostaining of bladder tissues from each group was repeated. Tables 1, 3, and 4 show the staining pattern for pFRS2α and pAKT over time in mice treated with full length FGF7.
(§2) After FGF7 binds to FGFR2IIIb, pFRSα appears first followed by pAKT. Activation of pAKT correlates with the anti-apoptotic/cytoprotective effects of FGF7 in the bladder urothelium.
(§3) Mice treated with DMSO control, full length FGF7, or FGF7-p were analyzed for activation of FGFR2IIIb and pAKT. Phosphorylated FRS2α and AKT levels were examined by immunostaining. After administration of full length FGF7, initial pFRS2α staining was observed as early as 15 hours later and pAKT staining was observed by 30 hours and peaked at 48 hours (see Tables 1-4 above). 48 hours after administration of 20 mg/kg or 40 mg/kg FGF7-p samples, strong FRS2α staining was observed.

pBAD = test: phosphorylated BAD (pBAD) immunostaining of urothelium after cyclophosphamide; conditions: two SC doses of 20 mg/kg at 72 and 48 hours prior to cyclophosphamide, 24 hours after cyclophosphamide
Method: (§4) Mice were administered two doses of 20 mg/kg of subcutaneous (SQ) FGF7-p (or 10% DMSO vehicle) at 72 hours and 48 hours prior to intraperitoneal (IP) injection of 150 mg/kg cyclophosphamide (n=3 female mice per group). Mice were sacrificed and bladders were harvested 24 hours after cyclophosphamide injection. The bladders were fixed in 4% paraformaldehyde in phosphate buffered saline and embedded in paraffin. The paraffin embedded bladders were then serially sectioned with a microtome. Hematoxylin and eosin staining was performed on the sections.

bladder urothelium [2] = test: cyclophosphamide-induced urothelial injury and apoptosis (H&E, TUNEL)
Method: FVB/N mice were administered subcutaneous doses 5 mg/kg, 20 mg/kg, 40 mg/kg of FGF7-p, 5 mg/kg of full length FGF7, or 10% DMSO alone (vehicle). After 24 hours, 150 mg/kg of cyclophosphamide was administered to the mice. Mice were the sacrificed and bladder tissues examined for signs of urothelial injury at various times.
as §4

bladder urothelium [3] = test: radiation-induced bladder urothelial apoptosis (TUNEL); conditions: two doses 20 mg/kg SQ at 72 and 48 hours prior to 10 Gray radiation, one day later
Method: The ability of FGF7p to inhibit radiation injury as assesses. Two doses of FGF7p (20 mg/kg SQ) or 2.5% DMSO/PBS vehicle was administered to anesthetized female mice (N=2) at 72 hours and 48 hours prior to exposing the mice to 10 Gray (1000 rads) radiation. Instead of directly exposing bladders to irradiation, we transurethrally filled bladders with 300 μL of saline and focused the radiation beam over the bladder bulge on the depilated abdominal wall. One day later, we noted many TUNEL+ urothelial apoptotic cells in the vehicle-treated mice (FIG. 4, left panel). […] Thus, similar to KGF, systemic FGF7p inhibited or blocked radiation-induced apoptosis.

FGFR2IIIb [4] = target: T1, FGFR2IIIb; test: pAKT immunostaining of bladder urothelium after subcutaneous ligand; conditions: for pAKT staining: uninjured mice, full length FGF7 5 mg/kg, FGF7-p 40 mg/kg
Method: as §1, §2, §3
To assess whether pATK expression was also increase in FGF7-p treated mice, bladders were analyzed for pATK staining at 72 hours. To confirm pAKT staining was robust in bladder of FGF7-p of treated mice at 72 hours, additional staining for DMSO and FGF7-p (40 mg/kg) treated animals at 72 hours and staining on old samples from full length FGF7-treated samples (5 mg/kg) at 30 hours, 48 hours and 96 hours (n=2 mice per group) was performed. […] Further, robust pAKT signal was seen throughout the urothelium.

pS6 = test: phosphorylated p70S6 kinase (pS6) immunostaining of urothelium after cyclophosphamide; conditions: two SC doses of 20 mg/kg at 72 and 48 hours prior to cyclophosphamide; 24 hours after cyclophosphamide; versus DMSO
[5] = two SC doses of 20 mg/kg at 72 and 48 hours prior to IP 150 mg/kg cyclophosphamide, 24 hours after cyclophosphamide

T1 sequence (P21803 22-707 isoform P21803-2 limits assumed): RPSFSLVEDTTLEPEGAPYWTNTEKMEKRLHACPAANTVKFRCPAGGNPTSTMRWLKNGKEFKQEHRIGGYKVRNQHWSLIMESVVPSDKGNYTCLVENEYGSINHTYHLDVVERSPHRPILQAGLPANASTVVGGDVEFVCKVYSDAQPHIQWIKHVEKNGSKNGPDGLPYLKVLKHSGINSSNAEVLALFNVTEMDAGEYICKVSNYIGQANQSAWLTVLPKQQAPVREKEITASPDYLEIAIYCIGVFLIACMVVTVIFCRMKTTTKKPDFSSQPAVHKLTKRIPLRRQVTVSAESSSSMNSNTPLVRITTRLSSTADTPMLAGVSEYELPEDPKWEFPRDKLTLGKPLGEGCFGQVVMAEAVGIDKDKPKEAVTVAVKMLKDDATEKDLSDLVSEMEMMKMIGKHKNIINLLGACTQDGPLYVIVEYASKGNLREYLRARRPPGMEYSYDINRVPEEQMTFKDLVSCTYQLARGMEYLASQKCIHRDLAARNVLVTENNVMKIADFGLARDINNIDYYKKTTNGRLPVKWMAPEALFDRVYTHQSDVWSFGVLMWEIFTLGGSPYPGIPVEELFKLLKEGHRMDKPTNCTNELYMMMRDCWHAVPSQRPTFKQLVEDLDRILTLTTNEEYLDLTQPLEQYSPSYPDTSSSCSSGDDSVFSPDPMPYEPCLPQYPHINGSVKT

pFRS2α staining (FGFR2IIIb [1]; 48 hours after administration of 5 mg/kg)	pFRS2α staining (FGFR2IIIb [1]; 48 hours after administration of 20 mg/kg)	onset of pFRS2α staining (initial staining observed) after administration (FGFR2IIIb [1])	pS6 urothelial staining (pS6)	pAKT staining first observed after administration (FGFR2IIIb [4]; mouse, in vivo) [hours]	peak of pAKT staining after administration (FGFR2IIIb [4]; mouse, in vivo) [hours]	Molecule	pAKT urothelial staining (pAKT)	pFRS2α staining (FGFR2IIIb [1]; 24 h after SC dose, uninjured mice, full length FGF7 5 mg/kg, FGF7-p 40 mg/kg)	pBAD urothelial staining (pBAD)	protection against urothelial apoptosis (bladder urothelium [2]; single SC dose 5, 20 or 40 mg/kg 24 hours before 150 mg/kg cyclophosphamide, at 48 hours, versus DMSO alone)	urothelial apoptosis, TUNEL staining (bladder urothelium [2]; [5])	urothelial injury, hematoxylin and eosin staining (bladder urothelium [2]; [5])	radiation-induced urothelial apoptosis, TUNEL staining (bladder urothelium [3])	pAKT staining (FGFR2IIIb [4]; 24 h after SC dose)	pAKT staining (FGFR2IIIb [4]; 48 h after SC dose)	pAKT staining (FGFR2IIIb [4]; 72 h after SC dose)
Less, but still significant	strong	delayed	much stronger staining	–	–	YASAKWTHNGGEMFVALNQ (listed as Homo sapiens) [FGF7-p, chemically synthesized 19 amino acid peptide of FGF7, FGFR2IIIb agonist]	strong signal throughout the urothelium	weak and patchy; also recorded: Light/patchy (similar to control)	strong staining	no signs of protection against urothelial apoptosis	intact and non-apoptotic urothelial cells	almost no urothelial injury	many regions with almost no (middle panel) or minimal urothelial apoptosis	absent	absent	robust
–	–	≤ 15 hours	–	≤ 30	48	full length FGF7: Fibroblast growth factor 7 (keratinocyte growth factor), full length ligand for FGFR2 IIIb isoform, used as comparator (protein) CNDMTPEQMATNVNCSSPERHTRSYDYMEGGDIRVRRLFCRTQWYLRIDKRGKVKGTQEMKNNYNIMEIRTVAVGIVAIKGVESEFYLAMNKEGKLYAKKECNEDCNFKELILENHYNTYASAKWTHNGGEMFVALNQKGIPVRGKKTKKEQKTAHFLPMAIT	–	–	–	–	–	–	–	–	–	–
